This passage reports Km results from ChEMBL document CHEMBL1136204, “Thymidine and thymidine-5'-O-monophosphate analogues as inhibitors of Mycobacterium tuberculosis thymidylate kinase” (Bioorg Med Chem Lett, 2003).

Substrate in series [1]: Cc1cn([C@H]2C[C@H](O)[C@@H](COP(=O)(O)O)O2)c(=O)[nH]c1=O
The series can be described thus: Affinity towards thymidine monophosphate kinase (TMPKmt) in Mycobacterium tuberculosis using HPLC chromatography test.

Substrate in series [2]: Cc1cn([C@H]2C=C[C@@H](COP(=O)(O)O)O2)c(=O)[nH]c1=O
Briefly: Affinity towards thymidine monophosphate kinase (TMPKmt) in Mycobacterium tuberculosis.

B1: Thymidylate kinase (Mycobacterium tuberculosis), P9WKE1 (protein)
chain: MLIAIEGVDGAGKRTLVEKLSGAFRAAGRSVATLAFPRYGQSVAADIAAEALHGEHGDLASSVYAMATLFALDRAGAVHTIQGLCRGYDVVILDRYVASNAAYSAARLHENAAGKAAAWVQRIEFARLGLPKPDWQVLLAVSAELAGERSRGRAQRDPGRARDNYERDAELQQRTGAVYAELAAQGWGGRWLVVGADVDPGRLAATLAPPDVPS
The Km is the concentration of substrate that gives half-maximal velocity. With B1, the Km in series [1] worked out at 40 µM; in series [2], 140 µM.
